From PMC8103725 (FASEB BioAdvances, 2021)

Target: HEG1–KRIT1 interaction (EGFP‐KRIT1 FERM domain binding to HEG1 cytoplasmic tail on beads) (Homo sapiens, UniProt O00522)
Experiment: Flow cytometry bead assay for the HEG1–KRIT1 FERM domain interaction
Details: bead assay, compared with wild‐type KRIT1

HEG1–KRIT1 interaction (EGFP‐KRIT1 FERM domain binding to HEG1 cytoplasmic tail on beads), sequence (O00522 417-736): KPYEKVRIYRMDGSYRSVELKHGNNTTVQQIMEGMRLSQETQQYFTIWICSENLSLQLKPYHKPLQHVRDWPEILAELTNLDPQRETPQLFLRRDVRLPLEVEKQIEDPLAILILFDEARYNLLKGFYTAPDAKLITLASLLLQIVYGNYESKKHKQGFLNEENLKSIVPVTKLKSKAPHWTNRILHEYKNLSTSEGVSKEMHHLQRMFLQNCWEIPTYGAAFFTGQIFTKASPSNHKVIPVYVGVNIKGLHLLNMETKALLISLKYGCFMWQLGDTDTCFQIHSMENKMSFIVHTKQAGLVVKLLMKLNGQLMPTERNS

B1: KRIT1 (L717,721A) mutant: EGFP‐KRIT1 FERM domain mutant with reduced affinity for HEG1 (protein)
chain: KPYEKVRIYRMDGSYRSVELKHGNNTTVQQIMEGMRLSQETQQYFTIWICSENLSLQLKPYHKPLQHVRDWPEILAELTNLDPQRETPQLFLRRDVRLPLEVEKQIEDPLAILILFDEARYNLLKGFYTAPDAKLITLASLLLQIVYGNYESKKHKQGFLNEENLKSIVPVTKLKSKAPHWTNRILHEYKNLSTSEGVSKEMHHLQRMFLQNCWEIPTYGAAFFTGQIFTKASPSNHKVIPVYVGVNIKGLHLLNMETKALLISLKYGCFMWQLGDTDTCFQIHSMENKMSFIVHTKQAGAVVKALMKLNGQLMPTERNS
modifications: left off: His6, N-terminal, state not stated | EGFP, N-terminal, kept
- binding to HEG1: dramatic reduction in binding
